The data set deals with 6His-CspA (Xanthomonas oryzae pv. oryzae PXO99A, UniProt A0ACG7R7F9 8-71). The data set is described as follows: EMSA. The note with it: protein: recombinant; tags: N-terminal His6 (pET-30a-c(+)); label: 3' biotin. A general note: A gel shift assay detects complexes by their altered migration in electrophoresis.

B1: PXO_RS11830 promoter probe (dsDNA)
DNA 1: CTGGCGGACGCCAATAGCGGTTGAATGGGCAAGAGGATCT
DNA 2: AGATCCTCTTGCCCATTCAACCGCTATTGGCGTCCGCCAG
As for B1, the binding result is “binds”.

B2: PXO_RS01060 promoter probe (dsDNA)
DNA 1: ATGATGTCGCCCAATCCCTGACCAGATCGATGCGCATGCA
DNA 2: TGCATGCGCATCGATCTGGTCAGGGATTGGGCGACATCAT
With B2, the binding result is reported as “binds”.

These data come from publication PMC6637868.
